The data set concerns the molecule itself. Nature of the data set: SDS-PAGE and Western blot of the purified protein; 1 ug purified histone on 16.5% Tris-Tricine SDS gels, Coomassie stain or Western blot with polyclonal anti-HTkA antibodies; dimers and higher-order species persist after extensive heating. In general terms: In western blotting, separated proteins are transferred to a membrane and probed.

B1: Thermococcus kodakarensis histone A protein (HTkA^WT) (natural protein)
chain: not shown
notes: Histone A (HTkA) of Thermococcus kodakarensis, encoded by TK1413 on plasmid pTS600; No tag is mentioned; purified by heparin and size exclusion; also called TK1413; recombinant HTkA; source: E. coli Rosetta 2 (DE3), purified (heat treatment, HiTrap Heparin, Sephacryl S-100)
For B1, the binding result is given as “binds”.

These data come from article PMC10899632, “Archaeal histone-based chromatin structures regulate transcription elongation rates” (Communications Biology, 2024).
